Measured values from patent US20160264649A1.

Experiments:
Test in all cases: cell-based or functional assay
[1] = molecular target: HIV-1 92RW024 Env (HIV-1)
[2] = molecular target: HIV-1 92RW026 Env (HIV-1)
[3] = molecular target: HIV-1 92UG037 Env (HIV-1)
[4] = molecular target: HIV-1 MGRM-A-001 Env (HIV-1)
[5] = molecular target: HIV-1 MGRM-A-008 Env (HIV-1)
[6] = molecular target: HIV-1 MGRM-A-011 Env (HIV-1)
[7] = molecular target: HIV-1 92BR020 Env on pseudovirus (HIV-1)
[8] = molecular target: HIV-1 92TH021 Env (HIV-1)
[9] = molecular target: HIV-1 93MW959 Env on pseudovirus (HIV-1)
[10] = molecular target: HIV-1 94UG114 Env (HIV-1)
[11] = molecular target: HIV-1 97ZA012 Env on pseudovirus (HIV-1)
[12] = molecular target: HIV-1 98CN009 Env on pseudovirus (HIV-1)
[13] = molecular target: HIV-1 APV_13 Env on pseudovirus (HIV-1)
[14] = molecular target: HIV-1 APV_6 Env on pseudovirus (HIV-1)
[15] = molecular target: HIV-1 CAAN.A2 (Acute) Env on pseudovirus (HIV-1)
[16] = molecular target: HIV-1 IAVI-C3 Env (HIV-1)
[17] = molecular target: HIV-1 LAVI_C22 Env on pseudovirus (HIV-1)
[18] = molecular target: HIV-1 LAVI_C3 Env on pseudovirus (HIV-1)
[19] = molecular target: HIV-1 MGRM-AE-003 Env (HIV-1)
[20] = molecular target: HIV-1 MGRM-AG-005 Env (HIV-1)
[21] = molecular target: HIV-1 MGRM-AG-006 Env (HIV-1)
[22] = molecular target: HIV-1 MGRM-AG-012 Env (HIV-1)
[23] = molecular target: HIV-1 MGRM-AG-013 Env (HIV-1)
[24] = molecular target: HIV-1 MGRM-C-008 Env on pseudovirus (HIV-1)
[25] = molecular target: HIV-1 MGRM-C-009 Env on pseudovirus (HIV-1)
[26] = molecular target: HIV-1 MGRM-C-010 Env on pseudovirus (HIV-1)
[27] = molecular target: HIV-1 MGRM-C-012 Env on pseudovirus (HIV-1)
[28] = molecular target: HIV-1 MGRM-C-013 Env on pseudovirus (HIV-1)
[29] = molecular target: HIV-1 MGRM-C-022 Env on pseudovirus (HIV-1)
[30] = molecular target: HIV-1 MGRM-C-025 Env on pseudovirus (HIV-1)
[31] = molecular target: HIV-1 MGRM-Chronic-B-002 Env on pseudovirus (HIV-1)
[32] = molecular target: HIV-1 MGRM-Chronic-B-017 Env on pseudovirus (HIV-1)
[33] = molecular target: HIV-1 MGRM-D-002 Env (HIV-1)
[34] = molecular target: HIV-1 MGRM-D-003 Env (HIV-1)
[35] = molecular target: HIV-1 MGRM-D-012 Env (HIV-1)
[36] = molecular target: HIV-1 MGRM-D-013 Env (HIV-1)
[37] = molecular target: HIV-1 MGRM-D-014 Env (HIV-1)
[38] = molecular target: HIV-1 MGRM-D-019 Env (HIV-1)
[39] = molecular target: HIV-1 MGRM-D-020 Env (HIV-1)
[40] = molecular target: HIV-1 MGRM-D-022 Env (HIV-1)
[41] = molecular target: HIV-1 MGRM-D-024 Env (HIV-1)
[42] = molecular target: HIV-1 MGRM-D-028 Env (HIV-1)
[43] = molecular target: HIV-1 MGRM-F1-017 Env (HIV-1)
[44] = molecular target: HIV-1 MGRM-F1-018 Env (HIV-1)
[45] = molecular target: HIV-1 MGRM-F1-020 Env (HIV-1)
[46] = molecular target: HIV-1 MGRM-F1-023 Env (HIV-1)
[47] = molecular target: HIV-1 MGRM-G-016 Env (HIV-1)
[48] = molecular target: HIV-1 MGRM-G-024 Env (HIV-1)
[49] = molecular target: HIV-1 MGRM-G-025 Env (HIV-1)
[50] = molecular target: HIV-1 NL43 Env on pseudovirus (HIV-1)
[51] = molecular target: HIV-1 SF162 Env on pseudovirus (HIV-1) (UniProt P19550)
[52] = molecular target: HIV-1 VLGCB3 Env on pseudovirus (HIV-1)
[53] = molecular target: aMLV envelope

Chain of 1443_C16 (PG16) (TCN-116) (antibody) (VH): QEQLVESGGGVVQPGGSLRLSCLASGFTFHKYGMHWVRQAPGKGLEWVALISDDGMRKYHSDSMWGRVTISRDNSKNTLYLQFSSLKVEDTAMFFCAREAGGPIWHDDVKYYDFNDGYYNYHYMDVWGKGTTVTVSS
Chain of 1443_C16 (PG16) (TCN-116) (antibody) (VL): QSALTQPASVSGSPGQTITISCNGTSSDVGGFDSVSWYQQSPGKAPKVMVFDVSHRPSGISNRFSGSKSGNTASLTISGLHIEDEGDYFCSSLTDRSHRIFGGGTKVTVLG

1443_C16 (PG16) (TCN-116) (antibody)
neutralization IC50 [1]: 0.08 mg/L | neutralization IC50 [2]: 0.03 mg/L | neutralization IC50 [3]: 0.01 mg/L | neutralization IC50 [4]: > 50 mg/L | neutralization IC50 [5]: > 50 mg/L | neutralization IC50 [6]: 0.24 mg/L | IC50 [7]: > 50 mg/L | IC50 (µg/ml), pseudovirus neutralization [8]: 0.1 µg/mL | neutralization IC50 [8]: 0.127 mg/L | neutralization IC90 [8]: 23.4 mg/L | IC50 [9]: 0.007 mg/L | IC50 (µg/ml), pseudovirus neutralization [10]: > 50 µg/mL | IC50 [11]: 2.55 mg/L | IC50 [12]: 5.76 mg/L | IC50 [13]: > 50 mg/L | IC50 [14]: 0.29 mg/L | IC50 [15]: 8.83 mg/L | neutralization IC50 [16]: 14.8 mg/L | neutralization IC90 [16]: > 50 mg/L | IC50 [17]: 0.02 mg/L | IC50 [18]: 9.55 mg/L | IC50 (µg/ml), pseudovirus neutralization [19]: 0.03 µg/mL | IC50 (µg/ml), pseudovirus neutralization [20]: > 50 µg/mL | IC50 (µg/ml), pseudovirus neutralization [21]: > 50 µg/mL | IC50 (µg/ml), pseudovirus neutralization [22]: 25.1 µg/mL | IC50 (µg/ml), pseudovirus neutralization [23]: 0.31 µg/mL | IC50 [24]: > 50 mg/L | IC50 [25]: > 50 mg/L | IC50 [26]: > 50 mg/L | IC50 [27]: 0.48 mg/L | IC50 [28]: > 50 mg/L | IC50 [29]: 0.25 mg/L | IC50 [30]: 0.04 mg/L | IC50 [31]: 3.06 mg/L | IC50 [32]: 0.02 mg/L | IC50 (µg/ml), pseudovirus neutralization [33]: 0.01 µg/mL | IC50 (µg/ml), pseudovirus neutralization [34]: 0.01 µg/mL | IC50 (µg/ml), pseudovirus neutralization [35]: 0.35 µg/mL | IC50 (µg/ml), pseudovirus neutralization [36]: 0.11 µg/mL | IC50 (µg/ml), pseudovirus neutralization [37]: 0.003 µg/mL | IC50 (µg/ml), pseudovirus neutralization [38]: 0.01 µg/mL | IC50 (µg/ml), pseudovirus neutralization [39]: 16.3 µg/mL | IC50 (µg/ml), pseudovirus neutralization [40]: > 50 µg/mL | IC50 (µg/ml), pseudovirus neutralization [41]: 0.02 µg/mL | IC50 (µg/ml), pseudovirus neutralization [42]: > 50 µg/mL | IC50 (pseudovirus neutralization) [43]: > 50 mg/L | IC50 (pseudovirus neutralization) [44]: 0.01 mg/L | IC50 (pseudovirus neutralization) [45]: 4.35 mg/L | IC50 (pseudovirus neutralization) [46]: > 50 mg/L | IC50 (µg/ml), pseudovirus neutralization [47]: 11.3 µg/mL | IC50 (µg/ml), pseudovirus neutralization [48]: 0.01 µg/mL | IC50 (µg/ml), pseudovirus neutralization [49]: > 50 µg/mL | IC50 [50]: 0.02 mg/L | IC50 [51]: > 50 mg/L | IC50 [52]: 0.4 mg/L | neutralization IC50 [53]: > 50 mg/L | neutralization IC90 [53]: > 50 mg/L
